From paper PMC10449828, “Fanconi anemia associated protein 20 (FAAP20) plays an essential role in homology-directed repair of DNA double-strand breaks”

How the values were obtained:
FANCA;FAAP20 [1] = target: T1, FANCA;FAAP20 (human;human, UniProt O15360;Q6NZ36 1-1455;1-180, |); experiment: EMSA; fixed suboptimal FANCA, FAAP20 titrated; binding stimulated; EMSA: 125 mM Tris pH 7.5, 5 mM EDTA, 6% glycerol, 1 mM DTT, 100 mM NaCl, 1 nM substrate, RT 45 min; 4% native PAGE in 1x TAE; details: protein: recombinant;recombinant; tags: none (native FANCA);C-terminal 6xHis; copies: 1;1; label: 32P 5' (T4 PNK); single strand
T1 sequence (O15360 whole entry, one chain of several): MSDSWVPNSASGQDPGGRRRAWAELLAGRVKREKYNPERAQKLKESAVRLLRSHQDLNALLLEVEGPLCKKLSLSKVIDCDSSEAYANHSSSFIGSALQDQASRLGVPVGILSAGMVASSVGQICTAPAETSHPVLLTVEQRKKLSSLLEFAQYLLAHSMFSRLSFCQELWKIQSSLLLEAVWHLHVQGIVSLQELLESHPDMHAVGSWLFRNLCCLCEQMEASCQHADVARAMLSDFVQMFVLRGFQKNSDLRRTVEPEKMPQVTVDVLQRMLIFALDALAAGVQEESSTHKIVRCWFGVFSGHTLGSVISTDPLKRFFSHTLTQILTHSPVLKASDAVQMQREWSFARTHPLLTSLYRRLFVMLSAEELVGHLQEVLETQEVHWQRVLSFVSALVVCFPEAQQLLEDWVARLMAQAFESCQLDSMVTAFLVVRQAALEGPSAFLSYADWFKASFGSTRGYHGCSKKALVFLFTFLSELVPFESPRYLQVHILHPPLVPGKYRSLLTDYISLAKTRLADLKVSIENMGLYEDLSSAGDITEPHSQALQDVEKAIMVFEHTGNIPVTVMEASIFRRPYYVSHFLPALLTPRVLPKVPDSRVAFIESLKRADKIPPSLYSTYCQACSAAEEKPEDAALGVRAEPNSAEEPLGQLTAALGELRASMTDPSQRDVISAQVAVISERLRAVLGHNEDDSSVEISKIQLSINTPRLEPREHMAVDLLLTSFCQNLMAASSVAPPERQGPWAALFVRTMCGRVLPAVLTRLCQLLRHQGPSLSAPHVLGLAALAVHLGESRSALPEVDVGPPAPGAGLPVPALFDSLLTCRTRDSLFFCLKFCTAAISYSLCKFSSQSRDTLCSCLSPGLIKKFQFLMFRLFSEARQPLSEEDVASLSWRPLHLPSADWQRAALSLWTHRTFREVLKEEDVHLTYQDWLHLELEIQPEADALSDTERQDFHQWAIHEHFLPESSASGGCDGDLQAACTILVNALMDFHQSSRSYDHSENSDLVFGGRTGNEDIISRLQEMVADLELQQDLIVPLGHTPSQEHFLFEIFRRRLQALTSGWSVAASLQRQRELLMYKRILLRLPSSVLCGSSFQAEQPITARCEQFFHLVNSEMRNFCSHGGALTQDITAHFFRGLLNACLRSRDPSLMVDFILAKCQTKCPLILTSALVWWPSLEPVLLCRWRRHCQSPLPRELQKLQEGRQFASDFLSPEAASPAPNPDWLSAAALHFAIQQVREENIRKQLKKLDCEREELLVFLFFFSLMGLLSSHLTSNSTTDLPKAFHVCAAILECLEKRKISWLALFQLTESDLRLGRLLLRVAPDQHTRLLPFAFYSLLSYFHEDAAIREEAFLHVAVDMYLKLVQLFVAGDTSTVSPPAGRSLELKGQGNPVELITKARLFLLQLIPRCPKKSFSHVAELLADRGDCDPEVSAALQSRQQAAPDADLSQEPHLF

FAAP20 = target: T2, FAAP20 (human, UniProt Q6NZ36 1-180); experiment: EMSA; FAAP20 9-24 nM; EMSA: 125 mM Tris pH 7.5, 5 mM EDTA, 6% glycerol, 1 mM DTT, 100 mM NaCl, 1 nM substrate, RT 45 min; 4% native PAGE in 1x TAE; details: protein: recombinant; tags: C-terminal 6xHis; label: 32P 5' (T4 PNK); single strand
T2 sequence: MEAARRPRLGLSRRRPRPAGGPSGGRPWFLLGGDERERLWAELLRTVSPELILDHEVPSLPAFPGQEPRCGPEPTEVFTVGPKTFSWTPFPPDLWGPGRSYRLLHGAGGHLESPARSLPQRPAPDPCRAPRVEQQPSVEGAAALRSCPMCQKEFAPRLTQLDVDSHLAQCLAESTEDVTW

FANCA;FAAP20;FANCG = FANCA;FAAP20;FANCG (human;human;human, UniProt O15360;Q6NZ36;O15287 1-1455;1-180;1-622, ||); experiment: EMSA; 10 nM each; slightly additive over FANCA+FANCG or FANCA+FAAP20; EMSA: 125 mM Tris pH 7.5, 5 mM EDTA, 6% glycerol, 1 mM DTT, 100 mM NaCl, 1 nM substrate, RT 45 min; 4% native PAGE in 1x TAE; details: protein: recombinant;recombinant;recombinant; tags: none (native FANCA);C-terminal 6xHis;N-terminal 6xHis; label: 32P 5' (T4 PNK); single strand
Sequence of FANCA;FAAP20;FANCG (O15360 whole entry, chain 1 of 2): as the sequence (O15360 whole entry, one chain of several) above
Sequence of FANCA;FAAP20;FANCG (O15287 whole entry, chain 3 of 2): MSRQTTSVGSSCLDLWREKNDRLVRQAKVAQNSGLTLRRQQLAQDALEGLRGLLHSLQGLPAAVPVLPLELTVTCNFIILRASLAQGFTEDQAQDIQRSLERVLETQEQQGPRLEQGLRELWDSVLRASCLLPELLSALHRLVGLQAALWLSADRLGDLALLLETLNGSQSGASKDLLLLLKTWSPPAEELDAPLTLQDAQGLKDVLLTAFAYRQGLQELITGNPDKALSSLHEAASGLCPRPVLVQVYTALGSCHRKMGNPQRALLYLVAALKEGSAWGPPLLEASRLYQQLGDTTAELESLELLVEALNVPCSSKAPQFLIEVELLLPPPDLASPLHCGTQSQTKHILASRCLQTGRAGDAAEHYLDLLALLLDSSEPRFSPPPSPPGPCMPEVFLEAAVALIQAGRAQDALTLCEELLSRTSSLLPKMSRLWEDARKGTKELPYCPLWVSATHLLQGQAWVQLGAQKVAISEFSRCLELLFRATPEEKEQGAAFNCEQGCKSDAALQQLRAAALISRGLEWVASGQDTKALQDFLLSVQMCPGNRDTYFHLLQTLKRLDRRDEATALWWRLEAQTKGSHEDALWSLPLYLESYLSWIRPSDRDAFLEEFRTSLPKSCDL

FANCA;FAAP20 [2] = target: T1, FANCA;FAAP20; experiment: EMSA; FANCA 10 nM, FAAP20 9-24 nM; FAAP20 increases FANCA affinity; EMSA: 125 mM Tris pH 7.5, 5 mM EDTA, 6% glycerol, 1 mM DTT, 100 mM NaCl, 1 nM substrate, RT 45 min; 4% native PAGE in 1x TAE; details: protein: recombinant;recombinant; tags: none (native FANCA);C-terminal 6xHis; copies: 1;1; label: 32P 5' (T4 PNK); single strand
FANCA;FANCG = FANCA;FANCG (human;human, UniProt O15360;O15287 1-1455;1-622, |); experiment: EMSA; 10 nM each; higher affinity than FANCA alone; EMSA: 125 mM Tris pH 7.5, 5 mM EDTA, 6% glycerol, 1 mM DTT, 100 mM NaCl, 1 nM substrate, RT 45 min; 4% native PAGE in 1x TAE; details: protein: recombinant;recombinant; tags: none (native FANCA);N-terminal 6xHis; copies: 1;1; label: 32P 5' (T4 PNK); single strand
Sequence of FANCA;FANCG (O15360 whole entry, chain 1 of 2): as the sequence (O15360 whole entry, one chain of several) above
Sequence of FANCA;FANCG (O15287 whole entry, chain 2 of 2): as the sequence (O15287 whole entry, chain 3 of 2) above

FANCA;FAAP20 [3] = target: T1, FANCA;FAAP20; experiment: EMSA; FANCA 10 nM, FAAP20 9-24 nM; binding stimulated; EMSA: 125 mM Tris pH 7.5, 5 mM EDTA, 6% glycerol, 1 mM DTT, 100 mM NaCl, 1 nM substrate, RT 45 min; 4% native PAGE in 1x TAE; details: protein: recombinant;recombinant; tags: none (native FANCA);C-terminal 6xHis; copies: 1;1; label: 32P 5' (T4 PNK); fork, 25 bp duplex; unpaired 3' arm 30 nt (strand 1) and 5' arm 25 nt (strand 2); 1 nt 3' overhang on strand 2 as printed

B1: EMSA ssRNA 61-mer (ssRNA)
RNA: GACGCUGCCGAAUUCUACCAGUGCCUUGCUAGGACAUCUUUGCCCACCUGCAGGUUCACCC
binding result (FANCA;FAAP20 [1]): binds

B2: EMSA ssDNA 61-mer (ssDNA)
DNA: GACGCTGCCGAATTCTACCAGTGCCTTGCTAGGACATCTTTGCCCACCTGCAGGTTCACCC
binding result (FAAP20): no binding | binding result (FANCA;FAAP20;FANCG): binds | binding result (FANCA;FAAP20 [2]): binds | binding result (FANCA;FANCG): binds

B3: splayed arm DNA (mixed)
DNA 1: GTCCTCCACCGCAGCCCACCTGCCCACCTTGTTGCTGATCTCAATCAGCTCTGGA
DNA 2: GCTGGCACGGTCGGATTTAAAGTTAGGGCAGGTGGGCTGCGGTGGAGGACG
binding result (FANCA;FAAP20 [3]): binds
